For data set [1] the following is noted: relative to morphine; cited from earlier work.
A short description of data set [2]: Stability of peptides in urine samples. The settings on record: compared with the gluten/casein related peptides; not studied in a systematic manner.

As to “NH4-TyrAlaPheGlyTyrProSer-COOH [dermorphin]”, the opiate activity in data set [1] was 1000 times. The stability in urine entry in data set [2] is given as “more stable in urine than the gluten/casein related peptides”. On to “NH4-Tyr AlaPheGluValValGly-COOH (H-YAFEVVG-OH) [deltorphin II]”, for which, in data set [2], the stability in urine entry is “more stable in urine than the gluten/casein related peptides”.

Values taken from patent EP0969015A2, “Peptide diagnostic markers for human disorders” (Ortho-Clinical Diagnostics, Inc., priority 1998, dated 2000).
